From patent US11918645B2, “Vaccines against hepatitis B virus” (priority 2012, dated 2024)

Columns and labels:
[1] = target: HLA-A*0201 (Homo sapiens, UniProt P04439, D140Y/D185E/D98H/E176V/E277Q/G131W/G231S/I119V/I121R/I166T/I218V/L300P/L318F/N151K/N90K/P208A/P217A/Q86G/Q94H/R138H/R169H/T345S); experiment: ProImmune REVEAL MHC class I binding assay of nonamers; details: score as % of positive control peptide
Source text: (§1) The number of HLA class I binding registers contained in each peptide may be determined by determining the ability of the peptide to bind to a range of frequently occurring HLA class I molecules. HLA class I binding may be measured using the ProImmune REVEAL® MHC-peptide Binding Assay (ProImmune Ltd, Oxford, UK). The REVEAL™ MHC peptide-binding assay measures the ability of each peptide to stabilize the ternary MHC-peptide complex for […], HLA-A*0201, HLA¬A*0301, HLA-A*2402, HLA-B*0702, HLA-B*0801, HLA-B*3501 representative of main HLA class I supertypes. Each tested peptide is given a score relative to a pass/fail control peptide and also compared to a positive control peptide.
(§2) Detection is based on the presence or absence of the native conformation of the MHC-peptide complex. The highly frequent HLA class I alleles (HLA-A*0201, A*0301, A*1101, A*2402, B*0702, B*0801, and B*3501) were selected. Binding to MHC molecules was compared to that of a known T-cell epitope, a positive control peptide, with very strong binding properties. […] The score of the test peptide is reported quantitatively as a percentage of the signal generated by the positive control peptide, and the peptide is indicated as having a putative pass or fail result. Good binders are considered to be those peptides with scores 45% of the positive control as defined by ProImmune.

[2] = target: T1, HLA-A*0301 (Homo sapiens, UniProt P04439); experiment: as above; details: score as % of positive control peptide
T1 construct: purchased ProImmune
Source text: as §1, §2

[3] = target: T2, HLA-A*1101 (Homo sapiens, UniProt P04439, A114D/D185E/E176A/F33Y/L180Q/S129P/T187R); experiment: as above; details: score as % of positive control peptide
T2 construct: purchased ProImmune
Source text: as §1, §2

[4] = target: HLA-A*2402 (Homo sapiens, UniProt P04439, D101N/D140Y/D185E/E176V/E190D/F33S/G103R/G107R/I119L/I121M/I306V/K335N/L105A/L180Q/L300P/N151K/N90K/Q86E/Q94H/R106L/R138H/R89G/T104I/T345S/V100E/W191G/Y123F); experiment: as above; details: score as % of positive control peptide
Source text: as §1, §2

[5] = target: T3, HLA-B*0702 (Homo sapiens, UniProt P01889); experiment: as above; details: score as % of positive control peptide
T3 construct: purchased ProImmune
Source text: as §1, §2

[6] = target: HLA-B*0801 (Homo sapiens, UniProt P01889, A93T/A95T/D138N/E176V/E187T/K202T/Q94N/R180D/S35A/V36M/Y33D/Y91F); experiment: as above; details: score as % of positive control peptide
Source text: as §1, §2

[7] = target: HLA-B*3501 (Homo sapiens, UniProt P01889, A329T/A93T/A95T/C349S/D201E/D98Y/E176V/E187L/E204Q/E69T/I218V/K202T/L119I/Q94N/R155S/R180L/S121R/S35A/S48A/T118I/V127L/V306I/V36M/Y140S/Y91F); experiment: as above; details: score as % of positive control peptide
Source text: as §1, §2

[8] = system: HLA class I alleles; experiment: ProImmune REVEAL MHC class I binding assay, summary over the seven alleles; design: species or system human; details: for Number of allele (b): number of class I alleles for which positive binding was detected; for Number of HLA binders (a): total number binding epitopes detected for each long peptide, seven class I alleles
Source text: as §1, §2

[9] = system: HLA-DR1 (α1*01:01;β1*01:01); experiment: ProImmune REVEAL MHC class II binding assay of long peptides; design: species or system human; details: percentage of the signal of the positive control peptide; positive binding score >=15%
Source text: (§3) The highly frequent HLA class II alleles HLA-DR1 (α1*01:01;β1*01:01), HLA-DR15 (α1*01:01;β1*15:01), HLA-DR3 (α1*01:01;β1*03:01), HLA-DR4 (α1*01:01;β1*04:01), HLA-DR11 (α1*01:01;β1*11:01), HLA-DR13 (α1*01:01;β1*13:01), and HLA-DR7 (α1*01:01;β1*07:01) were selected. Each peptide was given a score relative to the positive control peptide, which is a known T-cell epitope. The score of the test peptide is reported quantitatively as a percentage of the signal generated by the positive control peptide, and the peptide is indicated as having a putative pass or fail result. Good binders are considered to be those peptides with scores >=15% of the positive control as defined by Proimmune.

[10] = system: HLA-DR3 (α1*01:01;β1*03:0); experiment: as above; design: species or system human; details: percentage of the signal of the positive control peptide; positive binding score >=15%
Source text: as §3

[11] = target: T4, HLA-DR15 (α1*01:01;β1*15:01) (Homo sapiens, UniProt P01903+P01911); experiment: as above; details: percentage of the signal of the positive control peptide; positive binding score >=15%
T4 construct: purchased ProImmune
Source text: as §3

[12] = target: T5, HLA-DR7 (α1*01:01;β1*07:01) (Homo sapiens, UniProt P01903+P01911, A100R/A102G/A103Q/D57E/D86V/E43K/F76Y/K127E/L162R/M171V/P40G/Q125H/Q99D/R195Q/R33Q/R42Y/R54Q/S133A/S149N/S66F/T210M/V115G/Y107V/Y59L/Y89S); experiment: as above; details: percentage of the signal of the positive control peptide; positive binding score >=15%
T5 construct: purchased ProImmune
Source text: as §3

[13] = system: HLA-DP4 (α1*01:03;β1*04:01); experiment: as above; design: species or system human; details: percentage of the signal of the positive control peptide; positive binding score >=15%
[14] = target: T6, HLA-DR13 (α1*01:01;β1*13:01) (Homo sapiens, UniProt P01903+P01911, A100E/A169T/K41T/L162R/M171V/P40S/Q125H/Q178H/Q39Y/Q99D/R42S/S66N/W38E/Y61H); experiment: as above; details: percentage of the signal of the positive control peptide; positive binding score >=15%
T6 construct: purchased ProImmune
Source text: The highly frequent HLA class II alleles HLA-DR1 (α1*01:01;β1*01:01), HLA-DR15 (α1*01:01;β1*15:01), HLA-DR3 (α1*01:01;β1*03:01), HLA-DR4 (α1*01:01;β1*04:01), HLA-DR11 (α1*01:01;β1*11:01), HLA-DR13 (α1*01:01;β1*13:01), and HLA-DR7 (α1*01:01;β1*07:01) were selected. Each peptide was given a score relative to the positive control peptide, which is a known T-cell epitope.

T6 sequence (P01903 26-216, other chains not shown): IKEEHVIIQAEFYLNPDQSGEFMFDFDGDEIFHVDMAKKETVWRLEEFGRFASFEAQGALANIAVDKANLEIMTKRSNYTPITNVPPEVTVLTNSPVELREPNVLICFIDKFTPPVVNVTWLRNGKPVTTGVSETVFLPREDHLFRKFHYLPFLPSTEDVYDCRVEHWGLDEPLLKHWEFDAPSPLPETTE

Substance	Number of nonamers having a binding score >= 45%, HLA-A*0201 [1]	Number of nonamers having a binding score >= 45%, HLA-A*0301 [2]	Number of nonamers having a binding score >= 45%, HLA-A*1101 [3]	Number of nonamers having a binding score >= 45%, HLA-A*2402 [4]	Number of nonamers having a binding score >= 45%, HLA-B*0702 [5]	Number of nonamers having a binding score >= 45%, HLA-B*0801 [6]	Number of nonamers having a binding score >= 45%, HLA-B*3501 [7]	Number of allele (b) [8]	Number of HLA binders (a) [8]	binding score, HLA-DR1 (α1*01:01;β1*01:01) [9] [%]	binding score, HLA-DR3 (α1*01:01;β1*03:0) [10] [%]	binding score, HLA-DR15 (α1*01:01;β1*15:01) [11] [%]	binding score, HLA-DR7 (α1*01:01;β1*07:01) [12] [%]	binding score, HLA-DP4 (α1*01:03;β1*04:01) [13] [%]	binding score, HLA-DR13 (α1*01:01;β1*13:01) [14] [%]
NP113: unconjugated HBV long peptide, polymerase region 96-130 of virtual HBV proteome (VGPLTVNEKRRLKLIMPARFYPNVTKYLPLDKGIK; HBV CONSENSUS SEQUENCE)	2	3	5	3	2	3	2	7	20	54.44	49.98	28.04	99.17	33.51	0.00
NP151: unconjugated HBV long peptide, polymerase region 134-168 (PEHVVNHYFQTRHYLHTLWKAGILYKRETTRSASF; HBV CONSENSUS SEQUENCE)	3	4	3	4	3	4	0	6	21	14.59	0.00	38.96	19.41	74.36	0.00
NP753(K): unconjugated HBV long peptide, core KK + 738-770 (S to T at 743) + KKK (KKKEFGATVELLSFLPSDFFPSVRDLLDTASALYRKKK; HBV CONSENSUS SEQUENCE)	3	0	1	3	1	1	1	6	10	0.11	0.00	0.00	0.00	0.65	0.00
